Results published in PMC3447989.

Target: Treponema denticola superoxide reductase (Treponema denticola (strain ATCC 35405))
Assay: SEC

Substance: Treponema denticola superoxide reductase (enzyme)
- stoichiometry N: 2
